The values that follow come from the supplement of paper PMC10567573.

± gives the standard deviation.

A short description of the data set: protein stability index of a GFP-peptide fusion (GPS, HEK-293T) (PSI 1-6); higher = more stable. The following applies: c terminus: a fixed tail appended.
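Note: 24-mer peptide tiles fused after GFP, lentivirally expressed, FACS-sorted into six equal bins by GFP/DsRed ratio, decoded by Illumina sequencing, PSI is the read-weighted mean bin number.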

On to PLYLLTWKIAPAMAAGNTVIAKPS [ALDH8A1], for which the protein stability index by setting is: (treatment: DMSO) 2.04 ± 0.52; (treatment: MLN4924 1 uM, 8 h) 2.11 ± 0.4.

As to VSAEGSHPDPAPFCADNPSELPPP [DVL3], the protein stability index turned out to be 5.25 ± 0.27 (treatment: DMSO) and 5.32 ± 0.18 (treatment: MLN4924 1 uM, 8 h).

Take DNWDEKKLEEVVNKKHGEAEKKKP [ZC3H15]: the protein stability index (treatment: DMSO) came out at 5.48 ± 0.48 and the protein stability index (treatment: MLN4924 1 uM, 8 h) was determined as 5.75 ± 0.25.

On to DPDEEHLKKSSQVPRTEAPAPASS [PDLIM7], for which the protein stability index runs as follows: (treatment: DMSO) 5.39 ± 0.17; (treatment: MLN4924 1 uM, 8 h) 5.5 ± 0.25.

Consider GTKQGHLLLYRIRKDVGCNRFEVT [VPS39], for which the protein stability index came out at 2.12 ± 0.37 (treatment: DMSO) and 2.41 ± 0.28 (treatment: MLN4924 1 uM, 8 h).

Take NAESSKTWLKGKFTELRLLLDEEE [TRIM14]: the protein stability index reads like this: (treatment: DMSO) 4.14 ± 0.34; (treatment: MLN4924 1 uM, 8 h) 4.41 ± 0.47.

As to QAKQEMNESRRQIQSLTCEVDGLR [PRPH], the protein stability index reads like this: (treatment: DMSO) 4.55 ± 0.37; (treatment: MLN4924 1 uM, 8 h) 4.78 ± 0.18.

VPAQKFSALTFLRVDQDKDKDCSL [SMOC2]: the protein stability index was determined as 4.19 ± 0.3 (treatment: DMSO) and 4.52 ± 0.31 (treatment: MLN4924 1 uM, 8 h).

As for FHELQMQVTASDSGDPPLSSNVSL [PCDHGA10], the protein stability index worked out at 2.93 ± 0.49 (treatment: DMSO) and 3.38 ± 0.54 (treatment: MLN4924 1 uM, 8 h).

On to IYQYVQNSMAPHPARDYVVLRTWR [DLC1], for which the protein stability index was determined as 1.93 ± 0.23 (treatment: DMSO) and 2.03 ± 0.37 (treatment: MLN4924 1 uM, 8 h).

Take TCRNPACGPQWEMSEWSECTAKCG [ADAMTSL2]: the protein stability index reads like this: (treatment: DMSO) 3.28 ± 0.29; (treatment: MLN4924 1 uM, 8 h) 3.93 ± 0.53.

For the sequence HSRRHESYSRGYSYHDGYGEALGR [RBMY1A1], the protein stability index runs as follows: (treatment: DMSO) 3.14 ± 0.3; (treatment: MLN4924 1 uM, 8 h) 3.24 ± 0.36.

FTFPGMSLDKRQGEGLRIYWGSPE [TPRG1]: the protein stability index is 2.25 ± 0.35 (treatment: DMSO) and 2.38 ± 0.53 (treatment: MLN4924 1 uM, 8 h).

Sequence AEDFSTMDEISEKLKKGICEALED [MATN2] had a protein stability index (treatment: DMSO) of 5.22 ± 0.32 and a protein stability index (treatment: MLN4924 1 uM, 8 h) of 5 ± 0.33.

PVDLWACGVILYILLVGYPPFWDE [CAMK2A]: the protein stability index turned out to be 3.08 ± 0.1 (treatment: DMSO) and 2.56 ± 0.096 (treatment: MLN4924 1 uM, 8 h).

Take SNEQLKVTQEPRAKKGRRNQSVEP [ZMYND11]: the protein stability index is 5.2 ± 0.32 (treatment: DMSO) and 5.12 ± 0.44 (treatment: MLN4924 1 uM, 8 h).

The sequence FHLGLEDILMEEEEGVVGGLSGGA [TFE3] gave a protein stability index (treatment: DMSO) of 3.75 ± 0.46 and a protein stability index (treatment: MLN4924 1 uM, 8 h) of 4.3 ± 0.46.

Take MKSYSFLREAVPGILRARRGEGIQ [SOAT2]: the protein stability index by setting is: (treatment: DMSO) 2.54 ± 0.2; (treatment: MLN4924 1 uM, 8 h) 2.77 ± 0.39.

On to KKVHKGTVPKNDADDESETPEELE [GLT8D2], for which the protein stability index by setting is: (treatment: DMSO) 5.49 ± 0.27; (treatment: MLN4924 1 uM, 8 h) 5.65 ± 0.093.

Regarding PGARTRAGAARVARWRRLRLQQLR [FBXO33], the protein stability index reads like this: (treatment: DMSO) 4.12 ± 0.28; (treatment: MLN4924 1 uM, 8 h) 4.51 ± 0.26.

For the sequence IMNFIDIVAIIPYFITLGTEIAEQ [KCNA1], the protein stability index reads like this: (treatment: DMSO) 3.2 ± 0.41; (treatment: MLN4924 1 uM, 8 h) 2.89 ± 0.15.

Regarding MPTGPPEDRLSLKFLPSSEEDNDD [DRICH1], the protein stability index reads like this: (treatment: DMSO) 5.47 ± 0.2; (treatment: MLN4924 1 uM, 8 h) 5.59 ± 0.15.

For AMALTSSMNWGINLLISLTFLTVT [SLC2A12], the protein stability index is 3.14 ± 0.36 (treatment: DMSO) and 3.32 ± 0.33 (treatment: MLN4924 1 uM, 8 h).

LDTGTNYDYVREFKRSTGTWHHTK [GAN] registered a protein stability index (treatment: DMSO) of 3.34 ± 0.11 and a protein stability index (treatment: MLN4924 1 uM, 8 h) of 3.42 ± 0.25.

As to EKKDLKLEPPEEEIIEGNTKSHIM [NECAB1], the protein stability index runs as follows: (treatment: DMSO) 5.46 ± 0.17; (treatment: MLN4924 1 uM, 8 h) 5.43 ± 0.14.

On to TKAGHSLELIEPLIKFQVGLKKLN [VDR], for which the protein stability index runs as follows: (treatment: DMSO) 2.19 ± 0.38; (treatment: MLN4924 1 uM, 8 h) 2.42 ± 0.25.

As to SPTSGSPRGSHSSALERLETKLHL [LURAP1L], the protein stability index turned out to be 3.64 ± 0.4 (treatment: DMSO) and 3.94 ± 0.36 (treatment: MLN4924 1 uM, 8 h).

Take KVEQNSRPVSCSGRDALLDQIRQG [WASL]: the protein stability index is, setting by setting: (treatment: DMSO) 4 ± 0.16; (treatment: MLN4924 1 uM, 8 h) 3.96 ± 0.081.

For the sequence FRQFGYQDSPGPHEALSRLWELCH [ZNF396], the protein stability index was 2.28 ± 0.28 (treatment: DMSO) and 2.31 ± 0.24 (treatment: MLN4924 1 uM, 8 h).

On to VAALVVNFSQPVAGRPSLLRHDEV [NLN], for which the protein stability index reads like this: (treatment: DMSO) 2.46 ± 0.49; (treatment: MLN4924 1 uM, 8 h) 2.48 ± 0.36.

For the sequence AGINTHSNEFKESALTLACYKGHL [ANKRD17], the protein stability index is, setting by setting: (treatment: DMSO) 2.76 ± 0.19; (treatment: MLN4924 1 uM, 8 h) 2.86 ± 0.47.

In the case of AIHSSDEDEDEDDEEDFEDDDEWE [WASL], the protein stability index (treatment: DMSO) is 4.48 ± 0.26 and the protein stability index (treatment: MLN4924 1 uM, 8 h) stood at 4.49 ± 0.27.

As for GSLDLVPGGLTLEEHSLEQVQSMV [SPDEF], the protein stability index is, setting by setting: (treatment: DMSO) 4.35 ± 0.38; (treatment: MLN4924 1 uM, 8 h) 4.66 ± 0.21.

Regarding HQLYTSSSHHSHSYIGLPYADHNY [KMT2E], the protein stability index is 2.5 ± 0.042 (treatment: DMSO) and 2.53 ± 0.21 (treatment: MLN4924 1 uM, 8 h).

On to STRVCLQPIRGVEGSDYINASFID [PTPRD], for which the protein stability index reads like this: (treatment: DMSO) 3.18 ± 0.29; (treatment: MLN4924 1 uM, 8 h) 3.25 ± 0.41.

For the sequence CQDSSGEVSCQCQLHPPRWYSRLQ, the protein stability index runs as follows: (treatment: DMSO) 2.38 ± 0.28; (treatment: MLN4924 1 uM, 8 h) 2.81 ± 0.23.

For the sequence TDKLVTPGKYFSAAEYHAQRLKAV [IQUB], the protein stability index was 3.4 ± 0.21 (treatment: DMSO) and 3.19 ± 0.31 (treatment: MLN4924 1 uM, 8 h).

Regarding TEGGNDDSDFRELHTAREFSEEDE [RTN2], the protein stability index (treatment: DMSO) worked out at 5.42 ± 0.36 and the protein stability index (treatment: MLN4924 1 uM, 8 h) is 5.13 ± 0.71.

Take SHLQTNYSKTFQRSNVDFLETPEL [NECAB1]: the protein stability index came out at 3.47 ± 0.23 (treatment: DMSO) and 3.62 ± 0.57 (treatment: MLN4924 1 uM, 8 h).

Consider RRAGEGRRSPRPDHPGTPPHKTFR [WEE1], for which the protein stability index came to 4.78 ± 0.41 (treatment: DMSO) and 4.83 ± 0.32 (treatment: MLN4924 1 uM, 8 h).

Take QVEVDAQQCMLEILDTAGTEQFTA [RAP1B]: the protein stability index by setting is: (treatment: DMSO) 4.54 ± 0.12; (treatment: MLN4924 1 uM, 8 h) 4.59 ± 0.16.

Consider DCAGSPQKPLCASDGRTFLSRCEF [SMOC2], for which the protein stability index by setting is: (treatment: DMSO) 3.05 ± 0.48; (treatment: MLN4924 1 uM, 8 h) 3.27 ± 0.36.

On to ELEKIGSGEFGSVFKCVKRLDGCI [WEE1], for which the protein stability index runs as follows: (treatment: DMSO) 2.29 ± 0.25; (treatment: MLN4924 1 uM, 8 h) 2.35 ± 0.24.

For MSRSGDRTSTFDPSHSDNLLHGLN [KLHL14], the protein stability index runs as follows: (treatment: DMSO) 4.13 ± 0.24; (treatment: MLN4924 1 uM, 8 h) 4.09 ± 0.26.

Turning to SQTPILQALQHVQASCDEAHKMKF [INTS3], the protein stability index is 3.88 ± 0.14 (treatment: DMSO) and 3.93 ± 0.21 (treatment: MLN4924 1 uM, 8 h).

In the case of SSFPGSLPQETNLTLKVCKPQAPQ, the protein stability index was found to be 4.09 ± 0.21 (treatment: DMSO) and 4.14 ± 0.38 (treatment: MLN4924 1 uM, 8 h).

Turning to ELKRRVAEELALEQAKKESEDQKR [CHCHD3], the protein stability index by setting is: (treatment: DMSO) 4.14 ± 0.32; (treatment: MLN4924 1 uM, 8 h) 4.37 ± 0.082.

In the case of LRQEMVNLRATDVRLMRQLLVINE [LURAP1L], the protein stability index runs as follows: (treatment: DMSO) 2.35 ± 0.081; (treatment: MLN4924 1 uM, 8 h) 2.48 ± 0.34.

Turning to KIEIQTLTGLFKGDKCHSLVGKPK [CASP6], the protein stability index turned out to be 3.01 ± 0.12 (treatment: DMSO) and 3.15 ± 0.42 (treatment: MLN4924 1 uM, 8 h).

Regarding SLSKKYRQDAKYLNMRSTYAKLAA [SEC22B], the protein stability index reads like this: (treatment: DMSO) 2.56 ± 0.24; (treatment: MLN4924 1 uM, 8 h) 2.62 ± 0.073.

On to KKPLAGSVDEQNALREVYAHAVLG [WEE1], for which the protein stability index reads like this: (treatment: DMSO) 3.43 ± 0.18; (treatment: MLN4924 1 uM, 8 h) 3.54 ± 0.52.

In the case of EIIKVTEQLIEAISNGDFESYTKM [CAMK2A], the protein stability index reads like this: (treatment: DMSO) 2.27 ± 0.53; (treatment: MLN4924 1 uM, 8 h) 1.91 ± 0.61.

Regarding PSVRSSKDGKLLAATLLLALLSCC [TNFSF13B], the protein stability index turned out to be 2.73 ± 0.66 (treatment: DMSO) and 2.81 ± 0.85 (treatment: MLN4924 1 uM, 8 h).
